Experimental data published in patent US20040005636A1, “Method for obtaining the binding affinities of a peptide library to a protein” (priority 2002, published 2004).
Ends that are not written are not given here.

Assays:
[1] = target: T1, hERα-LBD (ligand binding domain of estrogen receptor α) (human, UniProt P03372 297-554); assay: fluorescence polarization, labelled peptide 10 nM, hERα-LBD titrated, diethylstilbestrol present; 100 may stand for above the assay limits
T1 construct: Assayed with estradiol, diethylstilbestrol, genistein or tamoxifen present; the ligand is named under assay in each row
T1 sequence (looked up): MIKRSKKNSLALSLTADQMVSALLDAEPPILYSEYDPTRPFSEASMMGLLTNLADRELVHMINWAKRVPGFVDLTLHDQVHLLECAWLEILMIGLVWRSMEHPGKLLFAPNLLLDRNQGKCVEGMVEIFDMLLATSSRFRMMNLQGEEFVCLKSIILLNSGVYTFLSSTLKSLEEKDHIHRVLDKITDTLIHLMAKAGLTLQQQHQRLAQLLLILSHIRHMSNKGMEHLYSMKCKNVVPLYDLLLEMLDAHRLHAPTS
Experimental: (§1) The concentration of protein varied between 0.001-20 μM in the following way. In 96 well plates, hTRβ-LBD or hERα-LBD was serially diluted from 40 μM to 0.002 μM in binding buffer (50 mM Sodium Phosphate, 150 mM NaCl, pH 7.2, 1 mM DTT, 1 mM EDTA, 0.01% NP40, 10% glycerol), containing 200 μM ligand (T₃, for TRβ, or estradiol, diethylstilbestrol, genistein or tamoxifen for ERα).
(§2) Subsequently 10 μL of diluted protein was added to 10 μL of fluorescent coregulator peptide (20 nM) in 384-well plates yielding final protein concentrations of […] and 10 nM fluorescent peptide concentration. The samples were allowed to equilibriate for 30 minutes. Binding was then measured using fluorescence polarization (excitation λ at 485 nm, emission λ at 530 nm) on an Analyst AD (available from Molecular Devices).
(§3) All experiments were carried out in quadruplicate, with each iteration containing the positive and negative controls, and 10-12 dose points. The data were then fit using Klotz plots to determine IC₅₀ values using nonlinear regression analysis that fits the data to a modification of the model of Heyduk and Lee. (Heyduk et al., Proc. Natl. Acad. Sci., (1990), 1774; Heyduk et al., Nature, (1993), 364, 6437; Heyduk et al., Methods Enzymol., 274, 492. Further analysis was conducted using Hill and Scatchard plots to confirm number and homogeneity of binding sites as discussed hereinbelow.

[2] = target: T1, hERα-LBD (ligand binding domain of …); assay: fluorescence polarization, labelled peptide 10 nM, hERα-LBD titrated, genistein present; 100 may stand for above the assay limits
Experimental: as §1, §2, §3

[3] = target: T1, hERα-LBD (ligand binding domain of …); assay: fluorescence polarization, hERα-LBD titrated, estradiol present; repeats Table 4; 100 may stand for above the assay limits
Experimental: as §1, §2, §3

[4] = target: T2, hTRβ-LBD (ligand binding domain of thyroid hormone receptor β) (human, UniProt P10828 202-461); assay: fluorescence polarization, hTRβ-LBD titrated, T3 present; Table 3 prints >AL (assay limits) for this pair
T2 construct: Assayed with the small-molecule ligand T3 present
T2 sequence (looked up): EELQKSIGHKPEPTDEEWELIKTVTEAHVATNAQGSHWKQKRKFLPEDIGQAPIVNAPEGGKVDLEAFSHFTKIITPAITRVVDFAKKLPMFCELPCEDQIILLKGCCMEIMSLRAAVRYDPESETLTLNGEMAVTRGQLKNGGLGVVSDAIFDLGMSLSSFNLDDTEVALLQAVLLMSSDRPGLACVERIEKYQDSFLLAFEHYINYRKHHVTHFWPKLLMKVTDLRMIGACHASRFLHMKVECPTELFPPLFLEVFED
Experimental: as §1, §2, §3

[5] = target: T1, hERα-LBD (ligand binding domain of …); assay: fluorescence polarization, labelled peptide 10 nM, hERα-LBD titrated, estradiol present; 100 may stand for above the assay limits
Experimental: as §1, §2, §3

Kd [1]: 100 µM
Kd [2]: 100 µM
Kd [3]: 100 µM
Kd [4]: 100 µM
Kd [5]: 100 µM
Binder: C(5‑iodoacetamidofluorescein)KKENNALLRYLLDRDDPSD [SRC3-3 coregulator peptide]
